# Reference: the nanobody polyreactivity screen of Harvey et al. (2022)
# Experiment: yeast display, Sf9 membrane polyspecificity reagent, FACS + sequencing; frameworks hold sequencing errors
# Outline: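 Polyreactivity labels are assigned by the sorting gate from which each nanobody was recovered. The gates were low and high (top ~1%), set on anti-HA fluorescence for expression and streptavidin fluorescence for reagent binding. Before sorting, galactose-induced (36–48 hours) yeast display cells were stained for 1 hour at 4 °C with 10% biotinylated, detergent-solubilized Sf9 membrane reagent.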
row,Sequence,polyreactivity (PSR sort gate)
1,QVQLVESGGGLVQAGGSLRLSCAASGRTFGRYAMGWYRQAPGKERELVAAITRSGSSTYYADSVKGRFTISRDNAKNTVYLQMNSLKPEDTAVYYCAALYGPFYSTGEYWGQGTQVTVSS,high polyreactivity
2,QVQLVESVGGLVQAGGSLRLSCAASGRIFARYAMGWYRQAPGKERELVAAITKSVGSTYYADSVKGRFTISRDNAKKTVYLQMNSLKPEDTAVYYCARVVADSEYDYWGQGTQVTVSS,high polyreactivity
3,QVQLVDSGGGLVQAGGSLRLSCAASGFIFDVYAMGGYRQAPGKERELVAAITSGDGTNYADSVKGRFTISRDNAKNTVYFQMNSLKPEDTAVYYCAADDGVTYRGIIFSYWGQGTQVTVSS,low polyreactivity
4,QVQLVESVGGLVQAGGSLRLSCAASGRIFSVNAMGWYRQAPGKERELVAAITTRGGTTYYADSVKGRFTISRDNAKNTVYLQMNSLKPEDTAVYYCAAESSWYVYWEWAHDYWGQGTQVTVSS,low polyreactivity
5,QDQHVESGGGLVQAGGSLRLSFAASGRTFISYTKGWYRPAPGKERELVAAINFSGGITYYADSVKGRFTISHDNAMNTVYLQMNSLKPVDTAVYYCAADWRTRYDYWGQGTQVTVSS,low polyreactivity
6,QVQIVESGGGLVQAGGSLRLSCAASGRIFGFNAMAWYRQAPGKERELVAAISWSSGRTYYADSVKGRFTISRDNAKNTVYLQMNSLKPEDTAVYYCAADQWGGGDDYWGQGTQVTVSS,high polyreactivity
7,QVQLVESGGGLVQAGGSLRLSCAASGIIFFTYAMGWYRQATGKERELVAAISSGGSTTYADSVKGRFTISRDNAKNTVYLQMNSLKPEDTAVYYCAAGTQAHDYVVRPIDMDYWGQGTQVTVSS,low polyreactivity
8,QVQIVESGGGLVQAGGSLRLSCAASGSTFFANTMGWYRQAPGKERELVAAISWSSVRTYYADSVKGRFTISRDHAKNTVYLQMNSLKPEDTAVYYCAAYSRFRYDYWGQGTQVTVSS,high polyreactivity
9,QVQLVESGGGLVQAGGSLRLSCAASGRIFIPYAMGWYRLAPGKERELVAAISSSAGSSYYADSVKGRFTISRDTAKNTVYLQMKSLKPEDTAVYYCAARLYWWYAFETYSSLFEYDYWGQGTQVTVSS,low polyreactivity
10,QVQLVESGGGLVQAGGSLRLSCAASGRTFYHYAIGWSRQAPGKEREMVAAITRRGGSTYYADSVKGRFTISRDNAKNTVYLQMNRLKPEDTAVYYCAVDGVTSRRYVYEYWGQGTQVTVSS,high polyreactivity
11,QVQLVESGGGLVQAGGSLRLSCAASGSTFLSYAMGWYRQAPGKERELVATINRGGSTYYADSVKGRFTISRDNAKNTVYLQMNSLKPEDTAVYYCAKANKRGRYNYWGQGTQVTVSS,high polyreactivity
12,QVQLVESGGRLVQAGGSLRLSCAASGITFYDYAMGWYRQAPGKERELVAAITWNGGDTYYADSVKGRFTISRDNAKNTVYLQMHSLKPEDTAVYYCNATRHYFGGFHYEYYYWGQGTQVTVSS,low polyreactivity
13,QVQLVESGGGLVQAGGSLRLSCAASGRTFSLYAMGWYRQAPGKERELVARIRSSTRTTYADSVKGRFTISRDNAKNTVYLQMNSLKPEDTAVYYCAADSGYRYYTKSVGYDYWGQGTQVTVSS,high polyreactivity
14,QVQLVESGGGLVQAGGSLRLSCAASGYTFGYYAMGWYRQAPGKERELVAAISWRGARTNYADSVKGRFTISRDNAKNTVYLQMNSLKPEDTAVYYCAAGYYYGYPPRDYWGQGTQVTVSS,high polyreactivity
15,QVHLVESGGGLLLAGGSLRLTCAASGSTFYSYDKGWYRQAPGKERELVAAISWNGGSTYYEDSVKGRFTISRDNAKNTVYLPMNSLKPEDTAVYYCAALRYVHGYDYWGQGTQVSVSS,high polyreactivity
16,QVQLVESGGGLVQAGGSLRLSSAASGRTFYYYAMGWYRQAPGKERELVAAITSRGTSTYYADSVKGRFTISRDNAKNTVYLQMNSLKPEDTAVFYCAAGFICYYGNGYDYWGQGTQVTVSS,high polyreactivity
17,QVHLVESGGGLVQAGGSLRLSCAASGSTFSIYTMGWYRQAPGKERELVAVITKSGGSTYYADSLKGRFTISRDNAKNTVYLQMISLKPEDIAVYYCAARRRGARHDYWGQGTQVTVSS,high polyreactivity
18,QVQLVESGGGLVQAGGSLRLSCAASGSIFKYYAMGWYRQAPGKERELVAAISFSGGSTYYADSVKGRFTISRDNAKNTVYLQMNSLKPEDTAVYYCAVLGVWGYGYWGQGTQVTVSS,high polyreactivity
19,QVQLVESGVGLVQAGGILRLSCAASGSIFWPNAMGWYRHAPGKERELVAGISYSGGRTYYADSVKARFTISRDNEKNTVYLQMNSLKPEDTAVYYCTARRSSGYGYWGQGTHVTVSS,high polyreactivity
20,QVQLVESGGGLVQAGGSLRLSCAASGRIFGRNAMGWYRQAPGKERELVAAISRSGGSTYYADSVKGRFTISRDNAKNTVYLQMNSLKPEFTAVYYCAADVYRTWYWWFDYWGHGTQVTVSS,high polyreactivity
21,QVQLVESGGGLVQAGGSLRLSCAASGIIFTQYAMGLYRQAPGKERELVAAISGSGGRTYYADSVKGRFTISRDIAKNTVYLQMNSLKPEDTAVYYCAARYARYGNDYWGQGTQVTVSS,high polyreactivity
22,QVQLVESGGGLVQAGGSLRLSCAASGITFRDYAMGWYRQAPGKERELVAAISRSVGSTYYADSVKGRFTISRDNAKNTVYLQMNSLKPEDTAVYYCAALSQREFDYWGQGTQVTVSS,high polyreactivity

row,Sequence,polyreactivity (PSR sort gate)
1,QVQLVESGGGLVQAGGSLRLICAASGSTFYYNDMGWYRQAPGKERELVAAITGDGTTDYADSVKGRFTISRDNAKNTVYLQMNSLKPEDTAVYYCATTWSTYKWPDAYIIWYGYWGQGTQVTVSS,high polyreactivity
2,RVQLQESGGGLVQAGGSLRLSCAPSSTISRYFYMGWYRQAPGKEREFVASITYGASTNYADSVKGRFTISRDNAKNTVYLQMNSLKPEDTAVYYCNAKQQPYGGTDYDYWGQGTQVTVSS,low polyreactivity
3,QVQLLESGGGIVQEGGSLRLSCAASGRIFSPYAMGWYRQAPGKERELVAAITWSGVSTYYADSVKGRFTLSRDNAKNSVYFQMNSLKPEDTAVYYSAVDPRGHEGVRYNYWVQGTQVTVSS,low polyreactivity
4,QVQLVESGGGLVQAGGSLRLSCAASGRTFGRYTMGLYRQAPGKERELVAAITYSGGSTYYADSVKGRFTISRDNAKNTVYFQMNSLKPVDTAVYYCADEWGYDWYRYGYWGQGTQVTVSS,low polyreactivity
5,QVQLVESGGGLVQAGGSLRLSCAASGRTSVRYAMGWYRQAPGKERELVAAISWSGGSTYYADSVKGRFTISRDNAKNTVYLQMNSLKPEDTAVYYCAAERGPTNHTSYPWYEYDYWGQGTQVTVSS,low polyreactivity
6,QVQLVESGGGLVQAGGSLRLSCAASGSIFVGYAMGWYRQAPGKERELVASITTPGGSTHYADSVKGRFTISRDNAKNTVYLQMNSLKPEDTAVYYCAADSLSNGVLQYLPGYDYWGQGTQVTVSS,low polyreactivity
7,QVQLVESGGGLVQAGGSLRLSCAASGRTLQGYAMGWYRQEPGKERELVAAISRGGGSTYADSVKGRFTISRDNAKNTVYLQMNSLKPEDTAVYYCNKKSYYRYYWGQGTQVTVSS,high polyreactivity
8,QVQLVESGGGLVQAGGSLRLSCAASVYTVVWYAMGWYRPAPGKERELVAVITSGGGTNYADSVKGRFTISRDNAKNTVYLQMNSLKPEDTAVYYCAAVWYTSRQKYDYWGQGTQVTVSS,low polyreactivity
9,QVQLVESGGGLVQAGGILRLSCAASGFTFKANAMGWYRQAPGKERELVAAISRRGSSTYYADSVKGRFTISRDNAKNTVYLQMNSLKPEDTAVYYCNTKPRAGRTKLGYWGQGTQVTVSS,high polyreactivity
10,QVQLVESGGGLVQAGGSLRLSCAASGSTFDINAMGWYRQAPGKERELVAAINSDARTNYADSVKGRFTISRDNAKNTVYLLMNSLKPEDTAVYYCATDTSHSTYQYGYWGQGTQVSVSS,low polyreactivity
11,QDHLVESGRGLVQAGGSLRLSCAASGSIFPSYAMVWNRQAPGKERDLVDSITTSGGSTYYADSVKGRFTISRDNAKNTVYLQMNSLKPEDTAVYYCNARRYYYSWGREGGYWGQGTQVTVSS,low polyreactivity
12,QVQLVESVGGLVQAGGSLRLSCAASGLTFYVYAMGRYRQAPGKERELVAAITQNGGTTYYADSVKGRFTISRDNAKNTVYLQMNSLKPEDTAVYNCAARRLYAGHQYDYWGQGTQVTVSS,high polyreactivity
13,QVQLVESGGGLVQAGCSLRLSCAPSGSTFKVNDMGWYRQAPGKERELVAAIDKSGGTTYYADSVKGRFTLSRDNAKNTVYYQMNSLKPEDTAVYYCAADVIYEMDYWGQGTQVTVSS,low polyreactivity
14,QVQLVESGGGLVQAGGSLRLSCAASGSTFDANAMGWYRQAPGKERELVADITVRDGSTYYADSVKGRFTISRDNAKNTVYLQMNSLKPEDTAVYYCNAGRYTGGYSPGYGYWGLGTQVTVSS,low polyreactivity
15,QVQLVESGGGLVQAGGSLRLSCAASGFIFSYNAMGWYRQAPGKERELVAAISSRGGSTYYADSVMGRFTISRDNAKNTVYLQMNSLKPEDTAVSYCAVASRRVYTAPSDYWGQGTQVTVSS,high polyreactivity
16,QVQLVESGGGLVQAGGRLRLSCAASGSIFIYYAMGWYRQAPGKERELVAAISNGGSTNYADSVKGRFTISRDNAKNTVYLQMNSLKPEDTAVYYCNTDWGYFHGVRAYLGYGYWGQGTQVTVSS,low polyreactivity
17,QVQLVESGGGLVQAGGSLRLSCAASGFTFELYDMGWYRQAPGKERELVARITRSGGSTNYADSVKGRFTISRDNAKNTVYLQMNSLKPEDTAVYYCAAKSPLFGLTSYPGPDDSWGQGTQVTVSS,low polyreactivity
18,QVQLVESGGGLVQAGGSLRLSCAASGSTFNRYAMGWYRQAPGKERELVAAISWNGGSTYYADSVKGRFTSSRDNAKNTVYLQMNSLKPEDTAVYYCATLVRKYDGFNYWGQGTQVTVSS,high polyreactivity
19,QVQLVESGAGLVQAGGRLRLSCAASGFIFTRYVMGWYRQAPGKERELVAAIRRGGSTYYADSVKGRFTISRDNAKNTVYLPMNSLKPEDTAVYYCAALYAYSLTARGMEYWGQGTQVTVSS,high polyreactivity
20,QVQLVQSGGGLVQAGGSLRLSCAPSGSISTPYTMGWYRQAPGKERELVAAISWIGDTTSYADSVKGRYTISRDNAKNTVYLQMKSLKPEDTAVYYCDADYLWYNYAGQVDQDYDYWGQGTQVTVSS,low polyreactivity
21,QVQLVESGGGLVQAGGSLRLSCAASGRTFDRNAMGWYRQAPGKERELVAAITSRGGRTYYADSVKGRFTISRDNAKNTVYLQMNSLKPEDTAVYYCAAQGRGHRFGDSRDNYWGQGTQVTVSS,high polyreactivity
